Laboratory results reported in US20250049896A1 (Regeneron, published 2025).

Biological target: T1, Hmm-hTFRC (REGN2431), monomeric human transferrin receptor ectodomain with N-terminal hexahistidine-myc-myc … (human, UniProt P02786 89-760)
T1 construct: also called hmm.hTfR(C89-F763); His-myc-myc-hTFRC ecto
Assay: blocking ELISA, supernatant; Hmm-hTFRC binding to immobilized human holo-Tf
Description: In the blocking assay, the anti-human Transferrin goat IgG polyclonal antibody (anti-hTf pAb) was passively absorbed at a concentration of 2 micrograms/mL in PBS on a 96-well microtiter plate overnight at 4° C. […] To the same plate, human holo-Tf was then added at a concentration of 1 micrograms/mL in PBS+0.5% BSA for 2 hours at room temperature. […] After a 1-hour incubation, the mixtures were transferred to the human holo-Tf microtiter plates. […] The plates were developed using TMB substrate solution according to the manufacturer's recommended procedure and absorbance at 450 nm was measured on a Victor™ Multilabel Plate Reader.
The ability of the anti-TfR antibody to block human TFRC binding to human holo-Tf was evaluated using an ELISA-based blocking assay.

T1 sequence (P02786 other isoform, or with tags, fused parts or gaps): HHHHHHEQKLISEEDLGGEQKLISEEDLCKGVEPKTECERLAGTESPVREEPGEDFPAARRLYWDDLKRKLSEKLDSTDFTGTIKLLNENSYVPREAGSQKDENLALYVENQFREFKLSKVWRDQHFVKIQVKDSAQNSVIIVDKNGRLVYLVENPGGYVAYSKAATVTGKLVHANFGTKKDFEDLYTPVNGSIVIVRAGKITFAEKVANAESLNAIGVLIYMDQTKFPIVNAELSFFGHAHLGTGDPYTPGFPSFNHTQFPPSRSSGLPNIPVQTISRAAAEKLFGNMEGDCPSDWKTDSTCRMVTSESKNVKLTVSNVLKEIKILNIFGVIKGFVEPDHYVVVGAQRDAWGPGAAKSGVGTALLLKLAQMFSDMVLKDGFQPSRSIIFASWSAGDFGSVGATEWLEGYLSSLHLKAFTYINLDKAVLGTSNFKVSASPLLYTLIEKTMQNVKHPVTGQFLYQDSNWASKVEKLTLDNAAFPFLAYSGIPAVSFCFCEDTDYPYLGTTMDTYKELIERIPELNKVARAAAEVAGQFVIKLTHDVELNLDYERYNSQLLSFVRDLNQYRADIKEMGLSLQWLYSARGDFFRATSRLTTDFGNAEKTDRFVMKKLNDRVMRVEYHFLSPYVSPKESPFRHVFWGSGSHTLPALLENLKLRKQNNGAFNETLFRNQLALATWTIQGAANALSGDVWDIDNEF

% Blocking | Binder
37% | 12801B scFv (VH-VK) (scFv) EVQLLESGGALVQPGGSLRLSCAASGFTFTSYAMHWVRQAPGKGLEWVSSIRGSGGGTYSADSVKGRFTISRDNSRDTLYLQMNSVRAEDTAVYYCARSHDYGAFDFFDYWGQGTLVTVSSDIQMTQSPSSLSASVGDRVTITCRASQGIRTDLGWYQQKPGKAPKRLIYAASSLQSGVPSRFSGSGSGTEFTLTISSLRPEDFATFYCLQYNSYPLTFGGGTKVEIK
7% | 31863B scFv (VK-VH) (scFv, CHO supernatant; Vk-3xG4S-Vh) scFv: DIQMTQSPSSLSASIGDRVTITCRASQGISNYLAWYQQKPGKVPKLLIYAASTLQSGVPSRFSGSGSGTDFTLTISSLQPEDVATYYCQNHNSVPLTFGGGTKVEIKGGGGSGGGGSGGGGSEVQLVESGGGLVQPGGSLRLSCAASGFTFNSYAMTWVRQAPGKGLEWVSFIGGSTGNTYYAGSVKGRFTISSDNSKKTLYLQMNSLRAEDTAVYYCAKGGAARRMEYFQHWGQGTLVTVSS
14% | 12816B Fab (Fab, V domains shown, CHO supernatant) VH: QVQLVESGGGLVKPGGSLRLSCAASGFTFSDYYMNWIRQAPGKGLEWVSYISSSGTTIYYADSVKGRFTISRDNAKKSLYLEMNSLRAEDTAVYYCAREGYGNDYYYYGIDVWGQGTTVTVSS VL: not shown
13% | 12848B Fab (Fab, V domains shown, CHO supernatant) VH: EVQLVESGGGLVQPGRSLTLSCAASGFTFDNFGMHWVRQGPGKGLEWVSGLTWNSGVIGYADSVKGRFTISRDNAKNSLYLQMNSLRPEDTALYYCAKDIRNYGPFDYWGQGTLVTVSS VL: not shown
45% | 12801B Fab (Fab, V domains shown, CHO supernatant) VH: EVQLLESGGALVQPGGSLRLSCAASGFTFTSYAMHWVRQAPGKGLEWVSSIRGSGGGTYSADSVKGRFTISRDNSRDTLYLQMNSVRAEDTAVYYCARSHDYGAFDFFDYWGQGTLVTVSS VL: DIQMTQSPSSLSASVGDRVTITCRASQGIRTDLGWYQQKPGKAPKRLIYAASSLQSGVPSRFSGSGSGTEFTLTISSLRPEDFATFYCLQYNSYPLTFGGGTKVEIKR
11% | 12845B Fab (Fab, V domains shown, CHO supernatant) VH: EVQLVESGGGLVQPGGSLRLSCAASGFTVSNYEMNWVRQAPGKGLEWVSYISSSTSNIYYADSVKGRFTISRDNAENSLYLQMNSLRVEDTAVYYCVRDGIVVVPVGRGYYYYGLDVWGQGTTVTVSS VL: not shown
13% | 12839B Fab (Fab, V domains shown, CHO supernatant) VH: QVQLVESGGGVVQPGRSLRLSCAASGFPFSNYVMYWVRQAPGKGLEWVALIFFDGKKNYHADSVKGRFTITRDNSKNMLYLQMNSLRPEDAAVYYCAKIHCPNGVCYKGYYGMDVWGQGTTVTVSS VL: not shown
12% | 12812B scFv (VK-VH) (scFv, CHO supernatant; Vk-3xG4S-Vh) scFv: DIQMTQSPPSVSASVGDRVTITCRASQGISSWLAWYQQKPGKAPKLLIYAASSLQSGVPSRFSGSGSGTDFTLTISSLQPEDFATYYCQQANSFPRTFGQGTKVEIKGGGGSGGGGSGGGGSQVQLVQSGAEVKKPGSSVRVSCKASRGTFSSYAISWVRQAPGQGLEWMGGIIPIFGTANYAQKFLARVTITADESTSTAYMELSSLRSEDTAVYYCAREKGWNYFDYWGQGTLVTVSS
78% | 12835B Fab (Fab, V domains shown, CHO supernatant) VH: EVQLVESGGGLIQPGGSLRLSCEASGFTFRNYEMNWVRQAPGKGLEWVSYISSSGNMKDYAESVKGRFTISRDNVKNSLQLQMNSLRVEDTAVYYCARDEFPYGMDVWGQGTTVTVSS VL: not shown
18% | 12808B scFv (VK-VH) (scFv, CHO supernatant; Vk-3xG4S-Vh) scFv: DIQMTQSPSSLSASVGDRVTINCRASQGIRNDLGWYQQKPGKAPKRLIYAASSLQSGVPLRFSGSGSGTEFTLTINNLQPEDFATYYCLSHNSYPWTFGQGTKVEIKGGGGSGGGGSGGGGSQLQLQESGPGLVKPSETLSLTCTVSGESISSNTYYWGWIRQPPGKGLEWIGSIDYSGTTNYNPSLKSRVTISVDTSRNHFSLRLRSVTAADTAVYYCAREWGNYGYYYGMDVWGQGTTVTVSS
27% | 12801B scFv (VK-VH) (scFv, CHO supernatant; Vk-3xG4S-Vh) scFv: DIQMTQSPSSLSASVGDRVTITCRASQGIRTDLGWYQQKPGKAPKRLIYAASSLQSGVPSRFSGSGSGTEFTLTISSLRPEDFATFYCLQYNSYPLTFGGGTKVEIKGGGGSGGGGSGGGGSEVQLLESGGALVQPGGSLRLSCAASGFTFTSYAMHWVRQAPGKGLEWVSSIRGSGGGTYSADSVKGRFTISRDNSRDTLYLQMNSVRAEDTAVYYCARSHDYGAFDFFDYWGQGTLVTVSS
3% | 12847B Fab (Fab, V domains shown, CHO supernatant) VH: EVQLVESGGGLVQPGRSLRLSCAASGFTFDDYAMNWVRQAPGKGLEWVSGISWSSGSMDYADSVKGRFTISRDNAKNSLYLQMNSLRTEDTALYYCAKAREVGDYYGMDVWGQGTTVTVSS VL: not shown
64% | 12833B Fab (Fab, V domains shown, CHO supernatant) VH: QVQLVESGGGVVQPGRSLRLSCAASGFTFSSFGMHWVRQAPGKGLEWVIFISYDGSDKYYADSVKGRFAISRDSSKNTLYLQMNSLRAEDTAVYYCAKENGILTDSYGMDVWGQGTTVTVSS VL: not shown
15% | 12802B Fab (Fab, V domains shown, CHO supernatant) VH: QVQLVESGGGLVKPGGSLRLSCAASGFTFSDYFMSWIRQAPGKGLEWVSYISSTGSTINYADSVKGRFTISRDNVKNSLYLQMTSLRVEDTAVYYCTRDNWNYEYWGQGTLVTVSS VL: EIVMTQSPATLSVSPGERATLSCRASQSVSINLAWYQQKPGQAPRLLIFVASTRATGIPARFSGSGSGTEFTLTISSLQSEDFATYYCQQYDIWPYTFGQGTKLEIKR
-2% | 12834B Fab (Fab, V domains shown, CHO supernatant) VH: QVQLVQSGAEVKKPGASVKVSCKASGYTFTSYGISWVRQAPGQGLEWMGWISVYHGNTNYAQKFQGRVTMTTDTSTSTAYMELRSLRSDDTAVYYCAREGYYDFWSGYYPFDYWGQGTLVTVSS VL: not shown
16% | 12808B Fab (Fab, V domains shown, CHO supernatant) VH: QLQLQESGPGLVKPSETLSLTCTVSGESISSNTYYWGWIRQPPGKGLEWIGSIDYSGTTNYNPSLKSRVTISVDTSRNHFSLRLRSVTAADTAVYYCAREWGNYGYYYGMDVWGQGTTVTVSS VL: DIQMTQSPSSLSASVGDRVTINCRASQGIRNDLGWYQQKPGKAPKRLIYAASSLQSGVPLRFSGSGSGTEFTLTINNLQPEDFATYYCLSHNSYPWTFGQGTKVEIKR
17% | 12802B scFv (VK-VH) (scFv, CHO supernatant; Vk-3xG4S-Vh) scFv: EIVMTQSPATLSVSPGERATLSCRASQSVSINLAWYQQKPGQAPRLLIFVASTRATGIPARFSGSGSGTEFTLTISSLQSEDFATYYCQQYDIWPYTFGQGTKLEIKGGGGSGGGGSGGGGSQVQLVESGGGLVKPGGSLRLSCAASGFTFSDYFMSWIRQAPGKGLEWVSYISSTGSTINYADSVKGRFTISRDNVKNSLYLQMTSLRVEDTAVYYCTRDNWNYEYWGQGTLVTVSS
19% | 12808B scFv (VH-VK) (scFv) QLQLQESGPGLVKPSETLSLTCTVSGESISSNTYYWGWIRQPPGKGLEWIGSIDYSGTTNYNPSLKSRVTISVDTSRNHFSLRLRSVTAADTAVYYCAREWGNYGYYYGMDVWGQGTTVTVSSDIQMTQSPSSLSASVGDRVTINCRASQGIRNDLGWYQQKPGKAPKRLIYAASSLQSGVPLRFSGSGSGTEFTLTINNLQPEDFATYYCLSHNSYPWTFGQGTKVEIK
10% | 12843B Fab (Fab, V domains shown, CHO supernatant) VH: EVQLVESGGGLVQPGGSLRLSCAASGFTFNIFEMNWVRQAPGKGLEWISYISSRGTTTYYADSVRGRFTISRDNAKNSLYLQMNSLRAEDTAVYYCARDYEATIPFDFWGQGTLVTVSS VL: not shown
29% | 12841B Fab (Fab, V domains shown, CHO supernatant; also called H1H12841B) VH: EVQLVESGGGLVQPGGSLRLSCAASGFTFSNYWMNWVRQAPGKGLEWVANIKEDGGKKLYVDSVKGRFTISRDNAKNSLFLQMNSLRAEDTAVYYCAREDTTLVVDYYYYGMDVWGQGTTVTVSS VL: not shown
20% | 12844B Fab (Fab, V domains shown, CHO supernatant) VH: EVQLVESGGSVVRPGGSLRLSCEASGFTFDDYGMSWVRQDPGKGLEWVSGINWNGDRTNYADSVKGRFIISRDNAKNSVYLQMNSLRAEDSALYHCARDQGLGVAATLDYWGQGTLVTVSS VL: not shown
14% | 12812B Fab (Fab, V domains shown, CHO supernatant) VH: QVQLVQSGAEVKKPGSSVRVSCKASRGTFSSYAISWVRQAPGQGLEWMGGIIPIFGTANYAQKFLARVTITADESTSTAYMELSSLRSEDTAVYYCAREKGWNYFDYWGQGTLVTVSS VL: DIQMTQSPPSVSASVGDRVTITCRASQGISSWLAWYQQKPGKAPKLLIYAASSLQSGVPSRFSGSGSGTDFTLTISSLQPEDFATYYCQQANSFPRTFGQGTKVEIKR
24% | 31863B Fab (Fab, V domains shown, CHO supernatant) VH: EVQLVESGGGLVQPGGSLRLSCAASGFTFNSYAMTWVRQAPGKGLEWVSFIGGSTGNTYYAGSVKGRFTISSDNSKKTLYLQMNSLRAEDTAVYYCAKGGAARRMEYFQHWGQGTLVTVSS VL: DIQMTQSPSSLSASIGDRVTITCRASQGISNYLAWYQQKPGKVPKLLIYAASTLQSGVPSRFSGSGSGTDFTLTISSLQPEDVATYYCQNHNSVPLTFGGGTKVEIKR
